B1: Tumor necrosis factor receptor superfamily member 6 (Homo sapiens), P25445-1 (parent)
chain: MLGIWTLLPLVLTSVARLSSKSVNAQVTDINSKGLELRKTVTTVETQNLEGLHHDGQFCHKPCPPGERKARDCTVNGDEPDCVPCQEGKEYTDKAHFSSKCRRCRLCDEGHGLEVEINCTRTQNTKCRCKPNFFCNSTVCEHCDPCTKCEHGIIKECTLTSNTKCKEEGSRSNLGWLCLLLLPIPLIVWVKRKEVQKTCRKHRKENQGSHESPTLNPETVAINLSDVDLSKYITTIAGVMTLSQVKGFVRKNGVNEAKIDEIKNDNVQDTAEQKVQLLRNWHQLHGKKEAYDTLIKDLKKANLCTLAEKIQTIILKDITSDSENSNFRNEIQSLV

Variants of: B1
Settings: with cav1_human CAV1, Q03135
Chain of cav1_human CAV1, Q03135 (Q03135 whole entry): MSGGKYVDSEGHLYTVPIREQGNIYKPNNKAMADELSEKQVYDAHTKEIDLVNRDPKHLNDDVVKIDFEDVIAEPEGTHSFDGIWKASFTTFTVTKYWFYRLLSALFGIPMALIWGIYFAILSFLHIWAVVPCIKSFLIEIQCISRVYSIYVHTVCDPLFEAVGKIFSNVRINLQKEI

effect of a mutation on the interaction | Variant
disrupting interaction | C199S

Reference: IntAct's records for PubMed 20956295
